The target of one experiment is His-IRIF 53BP1 (human, UniProt Q12888 1222-1659). The experiment is described as follows: pull-down.
Experiment [1] addresses T1, His-lamin B1, full length (human, UniProt P20700 1-586).
T1 sequence (looked up): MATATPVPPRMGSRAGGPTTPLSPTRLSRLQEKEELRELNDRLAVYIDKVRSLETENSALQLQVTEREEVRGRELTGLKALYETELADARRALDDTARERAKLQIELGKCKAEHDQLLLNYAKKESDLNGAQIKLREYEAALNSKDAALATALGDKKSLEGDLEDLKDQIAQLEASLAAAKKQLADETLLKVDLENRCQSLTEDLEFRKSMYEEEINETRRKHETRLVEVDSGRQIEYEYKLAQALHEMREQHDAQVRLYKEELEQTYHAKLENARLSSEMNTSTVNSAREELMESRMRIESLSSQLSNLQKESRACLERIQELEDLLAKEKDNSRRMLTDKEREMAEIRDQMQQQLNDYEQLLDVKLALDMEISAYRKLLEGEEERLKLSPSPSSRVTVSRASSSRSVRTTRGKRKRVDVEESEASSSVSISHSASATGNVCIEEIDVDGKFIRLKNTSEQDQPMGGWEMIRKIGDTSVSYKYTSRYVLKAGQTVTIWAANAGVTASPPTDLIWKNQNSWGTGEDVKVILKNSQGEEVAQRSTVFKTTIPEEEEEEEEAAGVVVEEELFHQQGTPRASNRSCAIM
The experiment is described as follows: pull-down.

B1: GST-Nterm lamin B1 (domain or fragment, human, UniProt P20700 1-424, looked up)
chain: MATATPVPPRMGSRAGGPTTPLSPTRLSRLQEKEELRELNDRLAVYIDKVRSLETENSALQLQVTEREEVRGRELTGLKALYETELADARRALDDTARERAKLQIELGKCKAEHDQLLLNYAKKESDLNGAQIKLREYEAALNSKDAALATALGDKKSLEGDLEDLKDQIAQLEASLAAAKKQLADETLLKVDLENRCQSLTEDLEFRKSMYEEEINETRRKHETRLVEVDSGRQIEYEYKLAQALHEMREQHDAQVRLYKEELEQTYHAKLENARLSSEMNTSTVNSAREELMESRMRIESLSSQLSNLQKESRACLERIQELEDLLAKEKDNSRRMLTDKEREMAEIRDQMQQQLNDYEQLLDVKLALDMEISAYRKLLEGEEERLKLSPSPSSRVTVSRASSSRSVRTTRGKRKRVDVEES
For B1, in the experiment with His-IRIF 53BP1, the binding result is on record as “binds”.

B2: GST-53BP1 IRIF (domain or fragment, human, UniProt Q12888 1222-1659, looked up)
chain: EEEFDMPQPPHGHVLHRHMRTIREVRTLVTRVITDVYYVDGTEVERKVTEETEEPIVECQECETEVSPSQTGGSSGDLGDISSFSSKASSLHRTSSGTSLSAMHSSGSSGKGAGPLRGKTSGTEPADFALPSSRGGPGKLSPRKGVSQTGTPVCEEDGDAGLGIRQGGKAPVTPRGRGRRGRPPSRTTGTRETAVPGPLGIEDISPNLSPDDKSFSRVVPRVPDSTRRTDVGAGALRRSDSPEIPFQAAAGPSDGLDASSPGNSFVGLRVVAKWSSNGYFYSGKITRDVGAGKYKLLFDDGYECDVLGKDILLCDPIPLDTEVTALSEDEYFSAGVVKGHRKESGELYYSIEKEGQRKWYKRMAVILSLEQGNRLREQYGLGPYEAVTPLTKAADISLDNLVEGKRKRRSNVSSPATPTASSSSSTTPTRKITESPRA
In the case of B2, the binding result in experiment [1] is reported as “binds”.

B3: GST-Head-Coil1 lamin B1 (domain or fragment, human, UniProt P20700 1-243, looked up)
chain: MATATPVPPRMGSRAGGPTTPLSPTRLSRLQEKEELRELNDRLAVYIDKVRSLETENSALQLQVTEREEVRGRELTGLKALYETELADARRALDDTARERAKLQIELGKCKAEHDQLLLNYAKKESDLNGAQIKLREYEAALNSKDAALATALGDKKSLEGDLEDLKDQIAQLEASLAAAKKQLADETLLKVDLENRCQSLTEDLEFRKSMYEEEINETRRKHETRLVEVDSGRQIEYEYKLA
Take B3: in the experiment with His-IRIF 53BP1, the binding result is reported as “binds”.
